This is an account of results in patent US10501502B2, “Allophycocyanin alpha-subunit evolved labeling proteins (smURFPs)” (The Regents of the University of California, priority 2016, dated 2019).

For the experiment, the system named is HT1080 tumor xenografts. The experiment can be described thus: Fluorescence imaging of HT1080 tumor xenografts in vivo. Also on record: species or system mice. The text has this: HT1080 cells were infected with CMV with smURFP-T2A-mCherry, smURFP-T2A-mCardinal, smURFP, and mCardinal lentiviruses in culture, and expression was verified by fluorescence imaging (FIG. 19a, ≥99% efficiency and FIG. 20a, ≥95% efficiency) using filters described in the previous section. All procedures using mice were approved by UCSD IACUC (#S03172M) and are consistent with the recommendations of the American Veterinary Medical Association. One million HT1080 cells expressing smURFP-T2A-mCherry were injected subcutaneously into the lateral, ventral, and upper right and left quadrant, or smURFP and mCardinal were injected subcutaneously into the lateral, dorsal, and lower right and left quadrant of four 5-week-old athymic nude female mice. Tumors were allowed to grow until ˜0.1-1 cm in diameter (˜2 weeks). Mice were anesthetized with isoflurane (1.5%) at a 2 liter/min flow, injected with ketamine-midazolam (intraperitoneal (IP), 80 mg/kg, 4 mg/kg), placed on a heated pad, and imaged before exogenous BV injection. 250 nmol BV was injected by intravenous (IV) tail vein, and mice were imaged 5, 30, 60, and 120 min after BV injection for smURFP-T2A-mCherry. 250 nmol BV or BVMe2 was injected by intravenous tail vein, and mice were imaged 60 min, 24 h, and 48 h after BV injection for smURFP and mCardinal tumors. Mice were imaged using a Maestro in vivo Imaging System (Cambridge Research & Instrumentation, CRI). FPs were imaged with the following filters: mCherry, EX/EM=590(23)/615LP nm and liquid crystal, 620 nm; mCardinal EX/EM=607(36)645LP nm and liquid crystal, 660 nm; and smURFP EX/EM=620(20)/645LP nm or EX/EM=640(47)/700LP and liquid crystal, 710 nm. […] Tumors were removed, washed 2× in 2 ml DMEM+10% FBS, labeled in 2 ml DMEM+10% FBS+10 μM BV or BVMe2 at 4° C. for 24 h, imaged, labeled in 2 ml DMEM+10% FBS+10 μM BV or BVMe2 at 37° C. for 24 h, and imaged (FIG. 20g).

B1: smURFP: small ultra-red fluorescent protein, SEQ ID NO: 13, homodimer, covalently attaches biliverdin (protein)
chain: MKTSEQRVNIATLLTENKKKIVDKASQDLWRRHPDLIAPGGIAFSQRDRALCLRDYGWFLHLITFCLLAGDKGPIESIGLISIREMYNSLGVPVPAMMESIRCLKEASLSLLDEEDANETAPYFDYIIKAMS
modifications: homodimer; biliverdin chromophore; smRUFP Variant Polypeptide
Take B1: where the note is “after 2 h”, the “fluorescence change after 250 nmol BV intravenously” value is “no increase in fluorescence”. Moreover, for the setting “at 607 nm”, the “fold dimmer than mCardinal in vivo” value is about 7.3 fold. The “fold dimmer than mCardinal in vivo” value (at 640 nm) is recorded as about 4 fold. Moreover, the “fluorescence of excised tumors with 10 μM BV or BVMe2” value (ex vivo) is given as “enhanced fluorescence”. Where the note is “mouse, in vivo”, the “fluorescence in tumor xenografts without exogenous BV” value is given as “visible without exogenous BV” and the “loss of fluorescence through the skin” value was determined as 25%. Besides, under “smURFP vs mCardinal tumors”, the “fluorescence change after injection of 250 nmol BV or BVMe2” value is reported as “no increase in fluorescence in vivo”. Also, under “without exogenous BV”, the “fluorescence intensity relative to mCherry in vivo” value is 35%.
